The assay addresses T1, Myc-DC-SIGNR (UniProt Q9H2X3 1-399).
T1 sequence (looked up): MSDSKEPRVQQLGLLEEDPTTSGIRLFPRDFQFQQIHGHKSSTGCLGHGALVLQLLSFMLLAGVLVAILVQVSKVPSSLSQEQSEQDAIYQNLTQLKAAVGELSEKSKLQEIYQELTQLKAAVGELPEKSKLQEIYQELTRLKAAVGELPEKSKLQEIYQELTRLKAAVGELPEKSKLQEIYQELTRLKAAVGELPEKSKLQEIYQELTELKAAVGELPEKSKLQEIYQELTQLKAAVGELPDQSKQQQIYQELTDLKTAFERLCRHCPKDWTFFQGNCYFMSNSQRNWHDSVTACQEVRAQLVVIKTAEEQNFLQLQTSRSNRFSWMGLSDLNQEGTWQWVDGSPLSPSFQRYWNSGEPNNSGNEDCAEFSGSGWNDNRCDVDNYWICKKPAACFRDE
Nature of the assay: co-IP.

Numbering of substitutions follows the chain as printed. Numbers in names are those of the source.

B1: Flag-LSECtin M1 (N73A) (receptor, UniProt Q6UXB4 1-293, looked up)
chain: MDTTRYSKWGGSSEEVPGGPWGRWVHWSRRPLFLALAVLVTTVLWAVILSILLSKASTERAALLDGHDLLRTAASKQTAALGALKEEVGDCHSCCSGTQAQLQTTRAELGEAQAKLMEQESALRELRERVTQGLAEAGRGREDVRTELFRALEAVRLQNNSCEPCPTSWLSFEGSCYFFSVPKTTWAAAQDHCADASAHLVIVGGLDEQGFLTRNTRGRGYWLGLRAVRHLGKVQGYQWVDGVSLSFSHWNQGEPNDAWGRENCVMMLHTGLWNDAPCDSEKDGWICEKRHNC
For the molecule B1, the “co-precipitated amount relative to wild-type LSECtin (onefold)” value is 0.8 fold of wild type.

B2: Flag-LSECtin M2 (N159A) (receptor, UniProt Q6UXB4 1-293, looked up)
chain: B1 chain with A73N, N159A
B2: the “co-precipitated amount relative to wild-type LSECtin (onefold)” value is 1.5 fold of wild type.

B3: Flag-LSECtin D1 (deletion of the potential endocytic motif) (receptor, UniProt Q6UXB4 1-293, looked up)
chain: MDTTRGGSSEEVPGGPWGRWVHWSRRPLFLALAVLVTTVLWAVILSILLSKASTERAALLDGHDLLRTNASKQTAALGALKEEVGDCHSCCSGTQAQLQTTRAELGEAQAKLMEQESALRELRERVTQGLAEAGRGREDVRTELFRALEAVRLQNNSCEPCPTSWLSFEGSCYFFSVPKTTWAAAQDHCADASAHLVIVGGLDEQGFLTRNTRGRGYWLGLRAVRHLGKVQGYQWVDGVSLSFSHWNQGEPNDAWGRENCVMMLHTGLWNDAPCDSEKDGWICEKRHNC
Turning to B3, the “co-precipitated amount relative to wild-type LSECtin (onefold)” value was 1.2 fold of wild type.

B4: Flag-LSECtin D3 (deficiency of the CRD/CTLD domain) (domain or fragment, UniProt Q6UXB4 1-162, looked up)
chain: MDTTRYSKWGGSSEEVPGGPWGRWVHWSRRPLFLALAVLVTTVLWAVILSILLSKASTERAALLDGHDLLRTNASKQTAALGALKEEVGDCHSCCSGTQAQLQTTRAELGEAQAKLMEQESALRELRERVTQGLAEAGRGREDVRTELFRALEAVRLQNNSC
In the case of B4, the “co-precipitated amount relative to wild-type LSECtin (onefold)” value was 0.8 fold of wild type.

The values above are taken from article PMC7088854 (Molecular and Cellular Biochemistry, 2009).
